Data on five substances can be found in US7078038.

The target in assay [1] is CXCR4 receptor on the cell surface (UniProt P61073). The experiment in a line: cell-based or functional assay.
Assay [2] deals with CD4 receptor on the cell surface (UniProt P01730). As to the kind of experiment: cell-based or functional assay.
The target in assay [3] is W338S gp120 fixed to CEM cells CD4+/CXCR4+ (HIV-1 (HXB2 clone of HIV-IIIB)) (UniProt P04578). The experiment in a line: flow cytometry, antibody at 10 µg/ml on gp120 fixed to CEM cells CD4+/CXCR4+. (A flow cytometer gives signals particle by particle.)
The target of assay [4] is wild gp120 fixed to CEM cells CD4+/CXCR4+ (HIV-1 (HXB2 clone of HIV-IIIB)) (UniProt P04578). Described as above.

In assay [1], “gp160 envelope with 338 W/S in gp120, expressed on transfected HeLa-Tat cells (from UniProt P04578 33-856)” showed a Percentage of fusion foci of 0%.
Substance “gp160 envelope with 112 W/F in gp120, expressed on transfected HeLa-Tat cells (from UniProt P04578 33-856)” yielded a Percentage of fusion foci in assay [2] of 60%.
Same read-out and setting: with “112W/S gp120 expressed on the surface of transfected HeLa-Tat cells (gp160 envelope with 112 W/S) (from UniProt P04578 33-856)” the figure was 0%.
As to AcM 4.8d (antibody), the average fluorescence intensity in assay [3] is 209; in assay [4], 76.8.
In the case of AcM 17b (antibody), the average fluorescence intensity amounted to 176 in assay [3] and 70.5 in assay [4].
